Data as given in article PMC10617567.

Tested on: AIM2 (recombinant AIM2FL)
Assay: EMSA
Conditions: 3' biotin; EMSA: 0.1 uM biotinylated 149 bp dsDNA, protein up to 2.5 ug (twofold dilutions), 4 C, 30 min, 5% native PAGE in 45 mM Tris-borate/1 mM EDTA; pull-down: 1 ug …

149 bp HBV dsDNA
Kd: 1.38
